Measured values reported in patent US20200362049A1 (BLACK BELT THERAPEUTICS, published 2020).

How the values were obtained:
Human CD38 on cells [1] = molecular target: T1, Human CD38 on cells (human, UniProt P28907 1-300); experiment: cell-based or functional assay
Human CD38 on cells [2] = molecular target: T1, Human CD38 on cells; experiment: cell-based or functional assay; remark: listed apart in the source

CDC, 10% complement, target Daudi cells: EC50 ug/ml DARA (experiment 10) (Human CD38 on cells [1]): 0.11 µg/mL | CDC, 10% complement, target Daudi cells: EC50 ug/ml DARA (experiment 11) (Human CD38 on cells [1]): 0.07 µg/mL | ADCC, target Daudi cells: EC50 ug/ml DARA (Human CD38 on cells [2]): 0.0139 µg/mL
B1: Daratumumab (antibody, human IgG1, kappa, V domains shown)
VH: EVQLLESGGGLVQPGGSLRLSCAVSGFTFNSFAMSWVRQAPGKGLEWVSAISGSGGGTYYADSVKGRFTISRDNSKNTLYLQMNSLRAEDTAVYFCAKDKILWFGEPVFDYWGQGTLVTVSS
VL: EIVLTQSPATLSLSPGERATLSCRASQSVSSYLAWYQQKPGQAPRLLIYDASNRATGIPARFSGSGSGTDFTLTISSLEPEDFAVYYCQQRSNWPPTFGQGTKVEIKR
